{"source": "paper PMC5458082", "about": "“Fibril polymorphism affects immobilized non-amyloid flanking domains of huntingtin exon1 rather than its polyglutamine core” (Nature Communications, 2017)", "binders": {"B1": {"name": "mutant huntingtin exon1 with a 44-residue polyQ domain, released from the MBP fusion protein by Factor Xa (domain or fragment)", "chain": "MATLEKLMKAFESLKSFQQQQQQQQQQQQQQQQQQQQQQQQQQQQQQQQQQQQQQQQQQQQPPPPPPPPPPPQLPQPPPQAQPLLPQPQPPPPPPPPPPGPAVAEEPLHRPSGS", "notes": "huntingtin exon1; The polyQ domain is expanded to 44 Gln against the UniProt entry. numbers count on: this Q44 construct from Met1; linker before the C-terminal His6, translated from the printed DNA; Uniformly 13C,15N-labelled for the ssNMR samples; Forms narrow (~6 nm) fibrils at 37 °C and wide (~15 nm) fibrils at 22 °C; both are the same chain; also called htt exon1; mutant htt exon1; source: …"}}, "key": {"[1]": {"molecular_target": "B1", "assay": "seeded and unseeded aggregation kinetics (ThT fluorescence + HPLC-based sedimentation assay); disaggregated htt^NTQ23P10K2 peptide in PBS pH 7.0 at 37 °C, with or without 20 mol-% sonicated htt exon1 fibril seeds formed at 22 or 37 °C", "details": "both partners purified"}, "[2]": {"molecular_target": "the molecule itself", "assay": "fibril formation, seen by negative-stain TEM + FTIR + MAS solid-state NMR; htt exon1 released from the MBP fusion by Factor Xa at 22 or 37 °C in PBS pH 7.4 with 0.02% sodium azide; mature fibrils pelleted and washed"}}}
{"binder": "htt^NTQ23P10K2 peptide (written out from the printed formula Q23P10K2: 23 Gln, 10 Pro, 2 Lys; also called shorter peptides with a 23-residue polyQ domain) peptide: MATLEKLMKAFESLKSFQQQQQQQQQQQQQQQQQQQQQQQPPPPPPPPPPKK", "values": [{"measurement": "binding result", "setting": "[1]", "result": "binds"}]}
{"binder": "B1", "values": [{"measurement": "binding result", "setting": "[2]", "result": "binds"}]}
